In IntAct's records for PubMed 38225382:

B1: GRB10-interacting GYF protein 1 (Homo sapiens), O75420 (parent)
chain: MAAETLNFGPEWLRALSGGGSVASPPPSPAMPKYKLADYRYGREEMLALYVKENKVPEELQDKEFAAVLQDEPLQPLALEPLTEEEQRNFSLSVNSVAVLRLMGKGAGPPLAGTSRGRGSTRSRGRGRGDSCFYQRSIEEGDGAFGRSPREIQRSQSWDDRGERRFEKSARRDGARCGFEEGGAGPRKEHARSDSENWRSLREEQEEEEEGSWRLGAGPRRDGDRWRSASPDGGPRSAGWREHGERRRKFEFDLRGDRGGCGEEEGRGGGGSSHLRRCRAPEGFEEDKDGLPEWCLDDEDEEMGTFDASGAFLPLKKGPKEPIPEEQELDFQGLEEEEEPSEGLEEEGPEAGGKELTPLPPQEEKSSSPSPLPTLGPLWGTNGDGDETAEKEPPAAEDDIRGIQLSPGVGSSAGPPGDLEDDEGLKHLQQEAEKLVASLQDSSLEEEQFTAAMQTQGLRHSAAATALPLSHGAARKWFYKDPQGEIQGPFTTQEMAEWFQAGYFSMSLLVKRGCDEGFQPLGEVIKMWGRVPFAPGPSPPPLLGNMDQERLKKQQELAAAALYQQLQHQQFLQLVSSRQLPQCALREKAALGDLTPPPPPPPQQQQQQLTAFLQQLQALKPPRGGDQNLLPTMSRSLSVPDSGRLWDVHTSASSQSGGEASLWDIPINSSTQGPILEQLQLQHKFQERREVELRAKREEEERKRREEKRRQQQQEEQKRRQEEEELFRRKHVRQQELLLKLLQQQQAVPVPPAPSSPPPLWAGLAKQGLSMKTLLELQLEGERQLHKQPPPREPARAQAPNHRVQLGGLGTAPLNQWVSEAGPLWGGPDKSGGGSSGLGLWEDTPKSGGSLVRGLGLKNSRSSPSLSDSYSHLSGRPIRKKTEEEEKLLKLLQGIPRPQDGFTQWCEQMLHTLSATGSLDVPMAVAILKEVESPYDVHDYIRSCLGDTLEAKEFAKQFLERRAKQKASQQRQQQQEAWLSSASLQTAFQANHSTKLGPGEGSKAKRRALMLHSDPSILGYSLHGSSGEIESVDDY
B2: CREB/ATF bZIP transcription factor (Homo sapiens), Q9NS37 (parent)
chain: MRHSLTKLLAASGSNSPTRSESPEPAATCSLPSDLTRAAAGEEETAAAGSPGRKQQFGDEGELEAGRGSRGGVAVRAPSPEEMEEEAIASLPGEETEDMDFLSGLELADLLDPRQPDWHLDPGLSSPGPLSSSGGGSDSGGLWRGDDDDEAAAAEMQRFSDLLQRLLNGIGGCSSSSDSGSAEKRRRKSPGGGGGGGSGNDNNQAATKSPRKAAAAAARLNRLKKKEYVMGLESRVRGLAAENQELRAENRELGKRVQALQEESRYLRAVLANETGLARLLSRLSGVGLRLTTSLFRDSPAGDHDYALPVGKQKQDLLEEDDSAGGVCLHVDKDKVSVEFCSACARKASSSLKM
partner: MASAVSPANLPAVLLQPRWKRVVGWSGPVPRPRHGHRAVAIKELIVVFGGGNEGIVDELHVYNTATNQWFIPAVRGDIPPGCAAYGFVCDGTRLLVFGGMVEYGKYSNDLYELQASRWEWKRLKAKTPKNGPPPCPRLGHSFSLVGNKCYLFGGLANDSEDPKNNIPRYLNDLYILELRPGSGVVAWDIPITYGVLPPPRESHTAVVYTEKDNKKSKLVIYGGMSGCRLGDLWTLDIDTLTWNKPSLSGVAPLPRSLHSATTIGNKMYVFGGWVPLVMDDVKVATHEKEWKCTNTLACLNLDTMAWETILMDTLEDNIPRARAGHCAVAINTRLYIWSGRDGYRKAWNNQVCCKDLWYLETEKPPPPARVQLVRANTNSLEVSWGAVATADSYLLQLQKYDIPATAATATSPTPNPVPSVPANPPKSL
B3: F-box only protein 28 (Homo sapiens), Q9NVF7 (parent)
chain: MAAAAEERMAEEGGGGQGDGGSSLASGSTQRQPPPPAPQHPQPGSQALPAPALAPDQLPQNNTLVALPIVAIENILSFMSYDEISQLRLVCKRMDLVCQRMLNQGFLKVERYHNLCQKQVKAQLPRRESERRNHSLARHADILAAVETRLSLLNMTFMKYVDSNLCCFIPGKVIDEIYRVLRYVNSTRAPQRAHEVLQELRDISSMAMEYFDEKIVPILKRKLPGSDVSGRLMGSPPVPGPSAALTTMQLFSKQNPSRQEVTKLQQQVKTNGAGVTVLRREISELRTKVQEQQKQLQDQDQKLLEQTQIIGEQNARLAELERKLREVMESAVGNSSGSGQNEESPRKRKKATEAIDSLRKSKRLRNRK
B4: E3 ubiquitin-protein ligase TRIM37 (Homo sapiens), O94972 (parent)
chain: MDEQSVESIAEVFRCFICMEKLRDARLCPHCSKLCCFSCIRRWLTEQRAQCPHCRAPLQLRELVNCRWAEEVTQQLDTLQLCSLTKHEENEKDKCENHHEKLSVFCWTCKKCICHQCALWGGMHGGHTFKPLAEIYEQHVTKVNEEVAKLRRRLMELISLVQEVERNVEAVRNAKDERVREIRNAVEMMIARLDTQLKNKLITLMGQKTSLTQETELLESLLQEVEHQLRSCSKSELISKSSEILMMFQQVHRKPMASFVTTPVPPDFTSELVPSYDSATFVLENFSTLRQRADPVYSPPLQVSGLCWRLKVYPDGNGVVRGYYLSVFLELSAGLPETSKYEYRVEMVHQSCNDPTKNIIREFASDFEVGECWGYNRFFRLDLLANEGYLNPQNDTVILRFQVRSPTFFQKSRDQHWYITQLEAAQTSYIQQINNLKERLTIELSRTQKSRDLSPPDNHLSPQNDDALETRAKKSACSDMLLEGGPTTASVREAKEDEEDEEKIQNEDYHHELSDGDLDLDLVYEDEVNQLDGSSSSASSTATSNTEENDIDEETMSGENDVEYNNMELEEGELMEDAAAAGPAGSSHGYVGSSSRISRRTHLCSAATSSLLDIDPLILIHLLDLKDRSSIENLWGLQPRPPASLLQPTASYSRKDKDQRKQQAMWRVPSDLKMLKRLKTQMAEVRCMKTDVKNTLSEIKSSSAASGDMQTSLFSADQAALAACGTENSGRLQDLGMELLAKSSVANCYIRNSTNKKSNSPKPARSSVAGSLSLRRAVDPGENSRSKGDCQTLSEGSPGSSQSGSRHSSPRALIHGSIGDILPKTEDRQCKALDSDAVVVAVFSGLPAVEKRRKMVTLGANAKGGHLEGLQMTDLENNSETGELQPVLPEGASAAPEEGMSSDSDIECDTENEEQEEHTSVGGFHDSFMVMTQPPDEDTHSSFPDGEQIGPEDLSFNTDENSGR
B5: Peroxisomal biogenesis factor 3 (Homo sapiens), P56589 (parent)
chain: MLRSVWNFLKRHKKKCIFLGTVLGGVYILGKYGQKKIREIQEREAAEYIAQARRQYHFESNQRTCNMTVLSMLPTLREALMQQLNSESLTALLKNRPSNKLEIWEDLKIISFTRSTVAVYSTCMLVVLLRVQLNIIGGYIYLDNAAVGKNGTTILAPPDVQQQYLSSIQHLLGDGLTELITVIKQAVQKVLGSVSLKHSLSLLDLEQKLKEIRNLVEQHKSSSWINKDGSKPLLCHYMMPDEETPLAVQACGLSPRDITTIKLLNETRDMLESPDFSTVLNTCLNRGFSRLLDNMAEFFRPTEQDLQHGNSMNSLSSVSLPLAKIIPIVNGQIHSVCSETPSHFVQDLLTMEQVKDFAANVYEAFSTPQQLEK

Variants of: B1
Settings: with SNRPB
For W498E, the “effect of a mutation on the interaction” value was “decreasing interaction strength”.
For L508F, the “effect of a mutation on the interaction” value was “with no effect”.

Variants of: B2
Settings: with HCFC1, P51610-3
MRHSLTKLLAASGSNSPTRSESPEPAATCSLPSDLTRAAAGEEETAAAGSPGRKQQFGDEGELEAGRGSRGGVAVRAPSPEEMEEEAIASLPGEETEDMDFLSGLELADLLDPRQPDWHLDPGLSSPGPLSSSGGGSDSGGLWRGDDDDEAAAAEMQRFSDLLQRLLNGIGGCSSSSDSGSAEKRRRKSPGGGGGGGSGNDNNQAATKSPRKAAAAAARLNRLKKKEYVMGLESRVRGLAAENQELRAENRELGKRVQALQEESRYLRAVLANETGLARLLSRLSGVGLRLTTSLFRDSPAGDHDAALPVGKQKQDLLEEDDSAGGVCLHVDKDKVSVEFCSACARKASSSLKM [Y306A] was tested, and the “effect of a mutation on the interaction” value was “decreasing interaction strength”.

Variants of: B3
Settings: with stx1b_human STX1B
MAAAAEERMAEEGGGGQGDGGSSLASGSTQRQPPPPAPQHPQPGSQALPAPALAPDQLPQNNTLVALPIVAIENILSFMSYDEISQLRLVCKRMDLVCQRMLNQGFLKVERYHNLCQKQVKAQLPRRESERRNHSLARHADILAAVETRLSLLNMTFMKYVDSNLCCFIPGKVIDEIYRVLRYVNSTRAPQRAHEVLQELRDISSMAMEYFDEKIVPILKRKLPGSDVSGRLMGSPPVPGPSAALTTMQLFSKQNPSRQEVTKLQQQVKTNGAGVTVLRREISELRTKVQEQQKQLQDQDQKLLEQTQIIGEQNARLAELERKLREVMESAVGNSSGSGQNEESPRKRKKATEARDSLRKSKRLRNRK [I355R] was tested, and the “effect of a mutation on the interaction” value was “with no effect”.
MAAAAEERMAEEGGGGQGDGGSSLASGSTQRQPPPPAPQHPQPGSQALPAPALAPDQLPQNNTLVALPIVAIENILSFMSYDEISQLRLVCKRMDLVCQRMLNQGFLKVERYHNLCQKQVKAQLPRRESERRNHSLARHADILAAVETRLSELNMTFMKYVDSNLCCFIPGKVIDEIYRVLRYVNSTRAPQRAHEVLQELRDISSMAMEYFDEKIVPILKRKLPGSDVSGRLMGSPPVPGPSAALTTMQLFSKQNPSRQEVTKLQQQVKTNGAGVTVLRREISELRTKVQEQQKQLQDQDQKLLEQTQIIGEQNARLAELERKLREVMESAVGNSSGSGQNEESPRKRKKATEAIDSLRKSKRLRNRK [L152E] was tested, and the “effect of a mutation on the interaction” value was “decreasing interaction strength”.
With MAAAAEERMAEEGGGGQGDGGSSLASGSTQRQPPPPAPQHPQPGSQALPAPALAPDQLPQNNTLVALPIVAIENILSFMSYDEISQLRLVCKRMDLVCQRMLNQGFLKVERYHNLCQKQVKAQLPRRESERRNHSLARHADILAAVETRLSLLNMTFMKYVDSNLCCFIPGKVIDEIYRVLRYVNSTRAPQRAHEVLQELRDISSMAMEYFDEKIVPILKRKLPGSDVSGRLMGSPPVPGPSAALTTMQLFSKQNPSRQEVTKLQQQVKTNGAGVTVLRREISELRTKVQEQQKQLQDQDQKLLEQTQIIGEQNARLAELERKLREVMESAVGNSSGSGQNEESPRKLKKATEAIDSLRKSKRLRNRK [R348L] the “effect of a mutation on the interaction” value was “increasing interaction strength”.

Variants of: B4
Settings: with pnkp_human PNKP
For N376R, the “effect of a mutation on the interaction” value was “with no effect”.
In the case of F328R, the “effect of a mutation on the interaction” value is reported as “with no effect”.

Variants of: B5
Settings: with pex16_human PEX16, Q9Y5Y5
Sequence of pex16_human PEX16, Q9Y5Y5 (Q9Y5Y5 whole entry): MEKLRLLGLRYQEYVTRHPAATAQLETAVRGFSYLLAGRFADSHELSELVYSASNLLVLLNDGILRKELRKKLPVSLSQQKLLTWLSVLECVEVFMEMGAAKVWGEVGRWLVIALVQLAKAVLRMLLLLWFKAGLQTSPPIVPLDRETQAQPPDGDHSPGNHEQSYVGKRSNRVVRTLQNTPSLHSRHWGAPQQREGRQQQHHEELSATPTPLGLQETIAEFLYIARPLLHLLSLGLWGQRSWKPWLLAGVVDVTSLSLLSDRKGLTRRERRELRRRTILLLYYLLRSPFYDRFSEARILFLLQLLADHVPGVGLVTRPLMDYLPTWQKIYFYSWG
For MLRSVWNFLKRHKKKCIFLGTVLGGVYILGKYGQKKIREIQEREAAEYIAQARRQYHFESNQRTCNMTVLSMLPTLREALMQQLNSESLTALLKNRPSNKLEIWEDLKIISFTRSTVAVYSTCMLVVLLRVQLNIIGGYIYLDNAAVGKNGTTILAPPDVQQQYLSSIQHLLGDGLTELITVIKQAVQKVLGSVSLKHSLSLLDLEQKLKEIRNLVEQHKSSSWINKDGSKPLLCHYMMPDEETPLAVQACGLSPRDITTIKLLNETRDMLRSPDFSTVLNTCLNRGFSRLLDNMAEFFRPTEQDLQHGNSMNSLSSVSLPLAKIIPIVNGQIHSVCSETPSHFVQDLLTMEQVKDFAANVYEAFSTPQQLEK [E272R], the “effect of a mutation on the interaction” value was “decreasing interaction strength”.
With MLRSVWNFLKRHKKKCIFLGTVLGGVYILGKYGQKKIREIQEREAAEYIAQARSQYHFESNQRTCNMTVLSMLPTLREALMQQLNSESLTALLKNRPSNKLEIWEDLKIISFTRSTVAVYSTCMLVVLLRVQLNIIGGYIYLDNAAVGKNGTTILAPPDVQQQYLSSIQHLLGDGLTELITVIKQAVQKVLGSVSLKHSLSLLDLEQKLKEIRNLVEQHKSSSWINKDGSKPLLCHYMMPDEETPLAVQACGLSPRDITTIKLLNETRDMLESPDFSTVLNTCLNRGFSRLLDNMAEFFRPTEQDLQHGNSMNSLSSVSLPLAKIIPIVNGQIHSVCSETPSHFVQDLLTMEQVKDFAANVYEAFSTPQQLEK [R54S] the “effect of a mutation on the interaction” value was “decreasing interaction strength”.
